Results: patent US20230391843A1, “COMPOSITION AND METHOD FOR CONTROLLING HEAT GENERATION WITHIN ORGANISM, AND USE” (GUANGDONG JIANTEBO BIOTECHNOLOGY CO., LTD., priority 2021, published 2023)
“Also recorded” adds a separate entry of the source.

What was measured:
primary beige adipocytes = primary beige adipocytes treated with IL-27 in vitro, immunoblot analysis; format: cell-based, mouse; details: rmIL-27 100 ng/ml
Experimental: A whole cell lysate or tissue lysate was extracted using an RIPA lysis buffer (Beyotime, China) supplemented with a complete protease inhibitor (Roche) and a phosphatase inhibitor Cocktail 2 (P5726, Sigma), and a supernatant was used for subsequent analysis. Proteins were diluted in a Loading dye (BL502A, Bio-sharp), heated at 95° C. for 10 min, and separated on 4-12% polyacrylamide gel. The proteins were transferred to polyvinylidene fluoride membranes and western blot experiments were performed with the commercial antibodies and methods-reagents mentioned in the drawing.
Inguinal subcutaneous adipose tissue was minced and digested at 37° C. for 45 min in PBS containing collagenase II (1 mg/ml), and a tissue suspension was filtered by a 100 μm cell filter and centrifuged at 600 g for 5 min, such that a stromal vascular fraction (SVF) was granulated. After granulation, the product was further filtered by a 40 μm cell filter and placed on a collagen-coated plate. After overnight culturing, a supernatant containing non-adherent cells was removed. Precursor adipocytes were grown in DMEM containing 10% FBS and insulin (5 μg/ml) for fusion. The product was treated for 2 days with dexamethasone (1 μM), 3-isobutyl-1-methylxanthine (IBMX, 0.5 mM), insulin (5 μg/ml), indomethacin (125 nM) and rosiglitazone (1 μM) to induce differentiation of the fused cells, and then independently treated for another 5 days with insulin (5 μg/ml) and triiodothyronine (T3, 1 nM). On day 7, the cells were pretreated overnight with and without IL-27 (100 ng/ml) and then treated with isoproterenol (10 μM) or forskolin (10 μM) for 4-6 hours. IL-27 (100 ng/ml) was added for treatment for 0-120 min on day 7 for protein phosphorylation analysis, or for 12-24 h for protein expression level detection. For signal inhibition experiments, either the STAT3 inhibitor (C188-9, 10 μM) or the p38 MAPK inhibitor (SB203580, 10 μM) was added to a medium 0.5 h prior to and during IL-27 treatment.
FIG. 3A-FIG. 3M show promotion of heat generation by IL-27. As for FIG. 3A: primary beige adipocytes were generated in vitro from an SVF of WT SCW and then treated with rmIL-27 (100 ng/ml) or PBS for 24 hours. Cells were lysed and a protein extract was used for immunoblot analysis. As for FIG. 3B: immunoblot analysis of phosphorylation of the protein in the WT primary beige adipocyte extract treated with the rmIL-27 (100 ng/ml) for a specified time was shown. As for FIG. 3C: the primary beige adipocytes derived from WT SCW were generated in vitro. The STAT3 inhibitor (C188-9, 10 μM) or p38 MAPK inhibitor (SB203580, 10 μM) was added to a medium 0.5 hours prior to culturing and in duration of rmIL-27 treatment (100 ng/ml for 12 hours). Cell lysis and the representative immunoblot of the protein extract were shown. As for FIG. 3D-FIG. 3J: WT mice were fed with HFD for 32 weeks and then injected intraperitoneally. Every other day, rmIL-27 (100 μg/kg) or PBS was injected for 15 days. As for FIG. 3D: body weight was recorded at specified time points (n=8). As for FIG. 3E: after rmIL-27 treatment for 15 days, adipose tissue was collected and weighed (n=6-8) for a glucose tolerance test (FIG. 3F, n=8) and an insulin tolerance test (FIG. 3G, n=8). As for FIG. 3H: the mice were fasted overnight and then injected intraperitoneally with 0.75 U/kg insulin (15 min). Immunoblot analysis of pAKT (pSer473) in epididymal fat was performed. As for FIG. 3I: after rmIL-27 treatment for 15 days, oil-red O liver tissue staining was performed, with the scale=50 μm. As for FIG. 3J-FIG. 3M: UCP1-KO mice were fed with HFD for 20 weeks and then injected intraperitoneally with rmIL-27 (100 μg/kg) or PBS every other day for 15 days. As for FIG. 3J: body weight was recorded at specified time points (n=6). As for FIG. 3K: adipose tissue and livers were collected and weighed after rmIL-27 treatment for 15 days (n=6), and GTT (FIG. 3L, n=6) and ITT (FIG. 3M, n=4) tests were performed after rmIL-27 treatment for 15 days. […]

EBI-3 KO mice = assay: cold stimulation experiment at 4° C. after rmIL-27 treatment of EBI-3 KO mice; format: in vivo, mouse; details: rmIL-27 100 μg/kg intraperitoneally for 7 consecutive days, then cold stimulation at 4° C.
Experimental: Cold stimulation experiments were performed in a temperature controlled cold room. Mice were placed individually in individual cages (without bedding) at 4° C. The mice had free access to food and water. Rectal core body temperatures were recorded every 2 hours using a digital thermometer and a rectal thermocouple probe (TH-212, HICHANCE, China). If the core body temperature fell below 20° C., the individual mice were euthanized and scored as events for survival analysis.
8-week-old WT mice were fed with HFD for 32 weeks and randomly divided into 2 groups. The mice were injected intraperitoneally with rmIL-27 (100 μg/kg) or PBS for 15 consecutive days, and then, metabolic analysis was performed. 12-month-old EBI-3 KO mice were randomly divided into 2 groups, and injected intraperitoneally with rmIL-27 (100 μg/kg) or PBS for 7 consecutive days. The mice were then subjected to a cold stimulation experiment at 4° C.
As for FIG. 7A-FIG. 7C: 8-week-old Il27ra^f/f and Ucp1-Cre Il27ra^f/f mice were fed with HFD for 10 weeks. After HFD treatment for 10 weeks, GTT (FIG. 7A) and ITT (FIG. 7B) (n=5-6) tests were performed, and adipose tissue and livers were collected and weighed (FIG. 7C, n=5-6). […] Expression of UCP1 was detected by immunoblot. […] Expression of UCP1 or PPARα was analyzed by an immunoblot. […] A band density was quantified and normalized with ImageJ. […]

[1] = 0-120 min, immunoblot (FIG. 3B)

B1: IL-27: Recombinant mouse IL-27 (EBI-3/p28 heterodimer cytokine), purchased from Biolegend (577408) (protein, UniProt O35228 19-228; Q8K3I6 29-234, looked up)
Interleukin-27 subunit beta: YTETALVALSQPRVQCHASRYPVAVDCSWTPLQAPNSTRSTSFIATYRLGVATQQQSQPCLQRSPQASRCTIPDVHLFSTVPYMLNVTAVHPGGASSSLLAFVAERIIKPDPPEGVRLRTAGQRLQVLWHPPASWPFPDIFSLKYRLRYRRRGASHFRQVGPIEATTFTLRNSKPHAKYCIQVSAQDLTDYGKPSDWSLPGQVESAPHKP
Interleukin-27 subunit alpha: FPTDPLSLQELRREFTVSLYLARKLLSEVQGYVHSFAESRLPGVNLDLLPLGYHLPNVSLTFQAWHHLSDSERLCFLATTLRPFPAMLGGLGTQGTWTSSEREQLWAMRLDLRDLHRHLRFQVLAAGFKCSKEEEDKEEEEEEEEEEKKLPLGALGGPNQVSSQVSWPQLLYTYQLLHSLELVLSRAVRDLLLLSLPRRPGSAWDS
Question: What does the source list for B1?
Answer: Phosphorylation of p38 MAPK (primary beige adipocytes; [1]): significantly increased; pSTAT3 (primary beige adipocytes; [1]): only transiently induced and rapidly regressed; expression of UCP1 (primary beige adipocytes; 24 hours, immunoblot (FIG. 3A)): significantly increased; expression of peroxisome proliferator-activated receptor α (PPARα) (primary beige adipocytes; 24 hours, immunoblot (FIG. 3A)): up-regulated; expression of peroxisome proliferator-activated receptor γ co-activator 1α (PGC-1α) (primary beige adipocytes; 24 hours, immunoblot (FIG. 3A)): up-regulated; activation of ATF2 (primary beige adipocytes; immunoblot (FIG. 3A-3C)): enhanced; UCP1-mediated heat generation (EBI-3 KO mice): improved; body temperature / hypothermia in cold stimulation (EBI-3 KO mice; rectal temperature): avoided low temperatures; also recorded: reverse hypothermia
